Measured values published in the nanobody polyreactivity screen of Harvey et al. (2022).

Test: yeast display, Sf9 membrane polyspecificity reagent, FACS + sequencing; frameworks hold sequencing errors
In short: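 After 36–48 hours of galactose induction, yeast (Saccharomyces cerevisiae BJ5465) displaying a synthetic nanobody library were stained at 4 °C for 1 hour with 10% biotinylated, detergent-solubilized Sf9 membrane reagent. Streptavidin microbeads enriched the stained cells before FACS sorting into low and high (top ~1%) gates on anti-HA and streptavidin fluorescence. Each clone's polyreactivity label reflects its gate of origin.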

Sequence | polyreactivity (PSR sort gate)
QVQLVESGGGLVQAGGSLRLSCAASGSTFRANAMGWYRQAPGKESELVADIRFSDGSTYYADSVKGRFTISRDNAKNTVYLQMNSLKPEDTAVYYCAARPSGRGYYLLGYWGQGTQVTVSS | low polyreactivity
QVQLVESGGGLVQARGSLRLSCAASGGTFLSYAMGWYRQAPGKERELVAGISSGGSTNYADSVKGRFTISRDNAKNTVYLQMNSLKPEDTAVDYCAADSFPSEFDYWGQGTQVTVSS | low polyreactivity
QVQLVESGGGLVQAGGSLRLSCAASGFIFVPNAMGWYRQAPGKERELVAAIRWSDGTTYYADSVKGRFTISRDNAKNTVYLQMNSLKPEDTAVYYCATDHDPRYDYWGQGTQVTVSS | high polyreactivity
QVQLVESGGGLFQAGGSLRLSCAASGFTFIYYAMGSYRQAPGKATELVSAITHSGGSTYYADSVKGRFTISRDNAKTTVSLQMNSLNPEDTAVYYCAARLTWSRYQKYRTSSWQSYYWGQGTQVTVSS | high polyreactivity
QVQLVETGGGLVQARGSLRLSCAASGRTFYKYAMGWYIQAPGKERELVAAISSDGTTYYADSVKGRFTISRDNAKNTVYLQMNRLKPVDTAVYYFAADPPPPFLYVSVQEYDYWGQGTQVTVSS | low polyreactivity
QVQLVESGGGLVQAGGSLRLSCAASGSTLNYYAMGWYRQAPGKERELVAAITWSGGSTSYADSVKGRFTISRDNAKNTVYLPMNSLKRDDTAVYYCATDFPTVQLYETDWLSSDMGYWGQGTQVNVSS | low polyreactivity
EEELVESGGGLVQAGGSSLRLSCAASGRTFSTNVMGWYRQAPGKERELVAAINRSGGSTYYADSVKGRFTISRDNAKNTVYLQMNSLKPEDTAVYYCAKRDGVGNHEFDYWGQGTQVTVSS | low polyreactivity
QVQLQESGGGLVQAGGSLSLSCAASGSNFVSVTMGWYRQAHGKERELVASIGRGSTTNHADSVKGRFTISRDNAKNIVYLLMNSLKPEDTAVYYCAALESYGKYHGYWGQGTQVTVSS | low polyreactivity
QVQLVESGGGLLQAGGSLRLSCAASGRIYSIYAMGWYRQAPGKERELVASITGSGGTTYYADSVKGRFTISRDIAKNTVYLQMNSLKPEDTAVYYCAAVFYGFVGYYNEDYWGQGSQVTVSS | low polyreactivity
QVQLVESGGGLVLAGGSLRLSCAASGGIYTTYAMGWYREAPGKERELVAAISRSGGSTYYADSVKGRFTISRDNAKNTVYLQMNSLKPDDTAVYYCAADQYMCRAWRGRVYYWGQGTQVTVSS | high polyreactivity
QVQLVESGGGLVQAGGSLRLSCAASGRIFRYYVLGWYRQAPGKERELVATINWSGSRTYYADSVKGRFTISRDNAKNTVYLQMNSLKPEDTAVYYCAARTFNTYPRYYYWGQGTQVTVSS | high polyreactivity
QVQLVESGGGLVQAGGSLRLSCAASGGTFVLNAMGWYRQAPGKERELVATISSGGGTDYADSVKGRFTISRDNAKNTVYLQMNSLKPEDTAVYYCNTDYILWGDYDYWGQGTQVTVSS | low polyreactivity
QVQLVESCGGLVQAGGSLRLSCAASGFIFYYYAMGWYRQAPGKERELVAGITRGGSTYYADSVKGRFTISRDNAKNTVYLQMNSLKPEDTAVYYCASTYYLSYTSGTFGKFGYWGQGTQVTVSS | high polyreactivity
QVQLVESGGGLVQAGGSLRLSCAASGRIFGRNAMGWYRQAPGKERELVAAISRSGGSTYYADSVKGRFTISRDNAKNTVYLQMNSLKPEFTAVYYCAADVYRTWYWWFDYWGHGTQVTVSS | high polyreactivity
QDQLVESGGGLVQAGGSLRLSCAASGSIFYYYAMGWYRQAPGKERELVASISRSGGSTFYADSVKGRFTISRDNAKNSVYLQMNRLKPEDTAVSYCATGWYYSPYNYWGQGTQVTVSS | high polyreactivity
QVQLVESGGVLVQAGGSLRLSCAASGSTFYYYAMGWYRKAPGKERELVAAISSSGGTTYYADSVKGRFTISRDNAKNTVYLQMNSLKPEDTAVYYCAKYPWYWDEGNSWGQGTQVTVSS | low polyreactivity
KVQLVESGGALVQAGGSLRLSCAPSGSIFWNNAMGWYRQAPGKERELVAGISSAGSTNYADSVKGRFTISRDNAKNTVYLQLKSQKPEDTAVYYCAASYFSEYVWLRSYVRYYYWVQGTQVTVSS | low polyreactivity
QVQLVESGGGLVQAGGSLRLSCAASGFTFYQYAMGWYRQAPGKERELVASISWSGGRTYYADSVKGRFTISRDNAKNTVYLQMNSLKPEDTAVYYCAARAYRIAGYDYWGQGTQVTVSS | high polyreactivity
QVQLVESGGGLVQAGGSLRLSCAASGFTIHYYVMVWYRQAPGKERELVAAIRRGGSTSYADSVKGRFTISRDNAKNTVYLQMNSLKPEDTAVYYCAASYVSGERYDYWGQGTQVTVSS | low polyreactivity
QVQLVESGGGLVQAGGSLRLSCAASGSTFYVYDMGWYRQAPGKEREFVAVISWNGGSTYYADSVKGRFTISRDNAKNTVYLQMNSLKPEDTAVYYCATRRSSGRVTYDYWGQGTQVTVSS | low polyreactivity
QVQLLESGGCLGLAGASLRLSCAASGSTFSTYAMGWYRPAPGKERELVAAITRRGGRTYYADSVKGRFTISRDNAKNTVYLQMNCLKPEDTAVYSCNVLSGLFVQAEYDYWGQGTKVTVSS | high polyreactivity
